Data as given in PMC12785155, “Phytochrome B stabilizes the KNOX transcription factor BP/KNAT1 to promote light-initiated seed germination in Arabidopsis thaliana”.
Residue numbers refer to the chain shown, from its start.

T1: BP/KNAT1 (B…US) (Arabidopsis thaliana, UniProt P46639 1-398)
T1 sequence: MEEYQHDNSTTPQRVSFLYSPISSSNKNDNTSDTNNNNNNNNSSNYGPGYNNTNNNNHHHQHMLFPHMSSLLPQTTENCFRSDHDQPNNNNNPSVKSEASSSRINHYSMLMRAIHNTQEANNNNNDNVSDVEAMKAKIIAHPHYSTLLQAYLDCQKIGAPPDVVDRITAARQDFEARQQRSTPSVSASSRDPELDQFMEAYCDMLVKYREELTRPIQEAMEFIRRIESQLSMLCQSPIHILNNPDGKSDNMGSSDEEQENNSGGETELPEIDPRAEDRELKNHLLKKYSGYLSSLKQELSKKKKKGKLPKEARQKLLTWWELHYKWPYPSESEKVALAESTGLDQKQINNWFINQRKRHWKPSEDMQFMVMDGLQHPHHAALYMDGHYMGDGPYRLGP

B1: NCED6 probe (dsDNA)
DNA 1: TAGCCGGACATCATTTATTTGACGGTGACGGAATGATTCACGCCGTTA
DNA 2: TAACGGCGTGAATCATTCCGTCACCGTCAAATAAATGATGTCCGGCTA
B2: NCED9 probe (dsDNA)
DNA 1: CATTACACTTTTTTAAAATGACTGGAATGCATGACGTTTGGGCAC
DNA 2: GTGCCCAAACGTCATGCATTCCAGTCATTTTAAAAAAGTGTAATG
B3: NCED6-M mutant competitor (dsDNA)
DNA 1: B1 DNA 1 with T20A, G21A, C23A, T26A, G27A, C29A
DNA 2: B1 DNA 2 with G20T, C22T, A23T, G26T, C28T, A29T
B4: NCED9-M mutant competitor (dsDNA)
DNA 1: CATTACACTTTTTTAAAAAAAATGGAATGCAAAAAGTTTGGGCAC
DNA 2: GTGCCCAAACTTTTTGCATTCCATTTTTTTTAAAAAAGTGTAATG

Assays:
[1] = target: T1, BP/KNAT1 (B…US); experiment: EMSA; excess unlabeled probe reduced binding; LightShift Chemiluminescent EMSA kit; 0.5 ug BP-His with biotin-labeled probe, 20 min at room temperature, 6% polyacrylamide gel; buffer, salt and pH not stated; conditions: protein: recombinant; tags: His (pET32a, per Methods); Results text says BP-MBP; label: biotin (both strands, per oligo names); blunt
[2] = target: T1, BP/KNAT1 (B…US); experiment: competition; excess unlabeled mutant vs biotin-labeled NCED6 probe; did not effectively reduce binding; LightShift Chemiluminescent EMSA kit; 0.5 ug BP-His with biotin-labeled probe, 20 min at room temperature, 6% polyacrylamide gel; buffer, salt and pH not stated; conditions: protein: recombinant; tags: His (pET32a, per Methods); Results text says BP-MBP; blunt
[3] = target: T1, BP/KNAT1 (B…US); experiment: competition; excess unlabeled mutant vs biotin-labeled NCED9 probe; did not effectively reduce binding; LightShift Chemiluminescent EMSA kit; 0.5 ug BP-His with biotin-labeled probe, 20 min at room temperature, 6% polyacrylamide gel; buffer, salt and pH not stated; conditions: protein: recombinant; tags: His (pET32a, per Methods); Results text says BP-MBP; blunt

Row | Binder | binding result [1] | other results
1 | B1 | binds | 
2 | B2 | binds | 
3 | B3 |  | binding result [2]: no binding
4 | B4 |  | binding result [3]: no binding
